According to the supplement of paper PMC12042874:
± gives the uncertainty stated by the source.

Test: amyloid nucleation score (Sup35N fusion, yeast selection) (log enrichment); library NNK3; higher = more nucleation; inactive = no reads after selection
How it was run: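 The nucleation score is the DiMSum log enrichment of output over input reads, centred on the mode score of non-aggregating sequences. Only sequences with 100 or more input reads were scored, using Illumina sequencing of input and output plasmid inserts. Psi-negative yeast expressing Sup35N fused to peptides of 20 random codons were induced 24 hours with 100 μM copper sulfate and grown 7 days at 30°C on medium lacking adenine and uracil.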

| Substance | amyloid nucleation score |
| --- | --- |
| CEVGQCQGYVELLSYIHYNS | inactive |
| CEWNS | inactive |
| CFAKCFMKNLRSIGRVFLMG | inactive |
| CFCRMNIGGHCGVRRKLKV | inactive |
| CFDCTVF | inactive |
| CFGCVWLTITTNFPTVLFRG | inactive |
| CFGISLTESMSTSQNVVLDH | inactive |
| CFGRSGPW | inactive |
| CFLVTVSSGTASMQVLGRSG | 1.23 ± 0.14 |
| CFLYYRM | 1.17 ± 0.11 |
| CFNNKVVNTWRICMVGLSLS | inactive |
| CFPIPVWRGDLNGAPRYAQM | inactive |
| CFRPPFTFRYFALARGKAAD | inactive |
| CFSLGVCGQAKVNVWNNIYV | 2.71 ± 0.054 |
| CGGGALLDICLPFICPVNGL | 0.843 ± 0.19 |
| CGGLHQHNLMRRCRWMKPGE | inactive |
| CGLDSCLVICQYK | 0.584 ± 0.28 |
| CGNTSIV | inactive |
| CHASEWACYATLFLQT | inactive |
| CHLPQRP | 0.989 ± 0.2 |
| CHPLGRCALWWCFVPHGRFA | inactive |
| CIDQTTLKHTLDNCLIFF | inactive |
| CIDSYLMYVFVAQQPGN | inactive |

| Substance | amyloid nucleation score |
| --- | --- |
| CIFFWSALARLFFGLFNYPC | inactive |
| CIFLDGVAPFWMGESRWRSG | inactive |
| CIFMRIYGVC | inactive |
| CIILAGYISLLRLDNDSGWV | inactive |
| CIILRVCTHLVKSSARLPAP | inactive |
| CIPPCW | inactive |
| CIRSS | inactive |
| CISRKFFSVRSVYLWYVSAT | inactive |
| CISSCYWWFGFYVLKWE | inactive |
| CIYCTSSL | 0.519 ± 0.21 |
| CIYNVKALIQRVWIMIEVTS | 0.707 ± 0.13 |
| CKIRGCKVLLDFVMASVDLW | inactive |
| CKMRYEDESWFKWVVDLSFN | inactive |
| CKNLWRVLGISPTRSSSMRV | inactive |
| CKRCIPMRYYQL | inactive |
| CKRHLNYSVSRAKAEKINYL | inactive |
| CKSDFCISNVLWLYGLKFQR | inactive |
| CKTHQVSYAYLC | inactive |
| CKTLFFCMWNCFCFTVYSWF | inactive |
| CLCSDTNVK | inactive |
| CLELK | -0.204 ± 1.1 |
| CLGMSFLRRMGTMSAYPTIK | inactive |
| CLMVKHYFFVSSWRFNVFGI | inactive |

| Substance | amyloid nucleation score |
| --- | --- |
| CLPSFRGFTTNIMGLIRSRV | inactive |
| CLPSVRQKGSWRLR | -0.338 ± 0.82 |
| CLQDPFPTIVPIVMGSIAKE | inactive |
| CLRDCKTPDSATHTRAINGL | inactive |
| CLRMGYVLRSRWERLDCLKW | inactive |
| CLRRTLEPW | inactive |
| CLRRVPLQRSSFLSVNLKLM | inactive |
| CLTYHSCIFRVHLFTISINV | inactive |
| CLVGPVHPMFVL | inactive |
| CLVNNLCVLR | 0.047 ± 0.55 |
| CLVTLVLTKFWCMCASSAVD | inactive |
| CLVVKLFHTSSCMNSYMRGG | 1.67 ± 0.11 |
| CLYIKVFEFNS | 2.16 ± 0.076 |
| CLYKSFLIS | inactive |
| CMAIVATATRSGPVGRSLAK | 0.508 ± 0.33 |
| CMAMSFPWWWYTGIITYSL | inactive |
| CMFFLLPIIAYSV | inactive |
| CMFKGHAELLRWVL | inactive |
| CMIMRAFRYNVALDMHMLHD | inactive |
| CMKLYRHFLNKASVHSDKGV | inactive |
| CMRYVGSPDNRHWASGKGIP | inactive |
| CMVFMYQILVPAWALRSYIL | inactive |
| CMVLDGRYNGWSISVWDARL | inactive |

| Substance | amyloid nucleation score |
| --- | --- |
| CMVNFS | inactive |
| CNCPPPPSSRYYSFSKAVYG | inactive |
| CNCVRWWRSSSTTNG | inactive |
| CNHLSSTCFT | inactive |
| CNLGWRNLDMVKG | inactive |
| CNLVVYCMSDNDV | 2.33 ± 0.049 |
| CNQTSM | inactive |
| CNVGPVSLFRFMGPLNYRDE | inactive |
| CNVIE | inactive |
| CNYCALLTCLRGMPN | 1.16 ± 0.12 |
| CPCFNLV | inactive |
| CPGVHWHDVK | inactive |
| CPLLSGFDESWDVEYDAQGD | inactive |
| CPLVFDMILVSLCSNGAGLI | inactive |
| CPTVMAYGKTGG | 0.934 ± 0.21 |
| CPVTIYSVYNTASVKALFLR | inactive |
| CQISWL | inactive |
| CQRYQALSNCPYSATWGSDT | inactive |
| CQVSCFNLVSIKSWDKIAGS | 2.52 ± 0.06 |
| CRAVND | inactive |
| CRDSWFWSV | inactive |
| CRHTLSRHDVTRCNSEVSSL | inactive |
| CRMDGIKGSEIRNADAWAIY | inactive |

| Substance | amyloid nucleation score |
| --- | --- |
| CRNSEKVWDPQRTVRALSRF | inactive |
| CRRFELS | -1.04 ± 1.9 |
| CRSGCQ | inactive |
| CRVAMILSCFTMVFCSQAAT | 1.5 ± 0.081 |
| CRVSGGTCMTGISDRRRERI | inactive |
| CRYESVYLNVEILPVTVAVV | inactive |
| CRYSLWSFSQMGEWMPRCER | inactive |
| CSCYENFELVPGFRRCRGMV | inactive |
| CSFIAGAPTSFWVVGLCWKY | -0.031 ± 0.72 |
| CSIARLFWFFPVMPSCIG | -0.236 ± 1.1 |
| CSIGRSTVDVRWGEGLWNRL | inactive |
| CSIWLCNKNVQIAN | inactive |
| CSLLGKMLTYNSDYGFQLNY | inactive |
| CSLQWFMV | inactive |
| CSLVSYSSLLGTCVDGIRDR | inactive |
| CSMVSWLIHCANMHRKTSTS | inactive |
| CSNAHFWVRILKECSLRGSG | 0.587 ± 0.41 |
| CSNLIIMKNSIERQTAFRYN | 0.284 ± 0.14 |
| CSNWLWWYYYVRMYRSVRFS | -0.368 ± 0.64 |
| CSQPCRHFYKVKGGYTFKCL | inactive |
| CSSRMVFLRHLAGFLWGRPP | 0.038 ± 0.85 |
| CSVGSFFRFDIIYWKYAGSL | -0.2 ± 0.36 |
| CTFFGKLLSCFVYSGMVQ | inactive |

| Substance | amyloid nucleation score |
| --- | --- |
| CTKWGGVSVISCQLAVSAKI | inactive |
| CTRHLQMFVNIF | 2.23 ± 0.056 |
| CTRITHGGGVTSLRNTSESN | inactive |
| CTSGLVVGLVFLMI | -0.716 ± 1.4 |
| CTSTAVLGSVLCK | inactive |
| CVCVGDSDYCSQSVCVTSYR | inactive |
| CVEIVGMESASCVVMNPLVC | inactive |
| CVFDSCSSLYKDMYTLCHVS | inactive |
| CVFLKKPEKMQLLASSFNS | inactive |
| CVFNMLEQ | inactive |
| CVMGVG | 0.312 ± 0.31 |
| CVPHRRAIVGFFRGCVNAAS | inactive |
| CVTCLARLHDGPEGIVHLCT | inactive |
| CVVELHHVCRVPMCPFCWTV | inactive |
| CWAPHPKDRKPVRGNYSVHN | inactive |
| CWLSWYFATKLGAYWELSNG | inactive |
| CWPESISVVYLQYCAGSMSL | inactive |
| CWPSVMFKISADNSGWFGVD | inactive |
| CWVIVAYTI | inactive |
| CYGALVVQTAYME | inactive |
| CYIGCNLEILNRRDKPFIIR | inactive |
| CYLGSHSFSAYCGQLFIFSV | inactive |
| CYLVGLCLLFGVQVSGLPYR | 0.798 ± 0.26 |

| Substance | amyloid nucleation score |
| --- | --- |
| CYQPRYLSWLKVRDCEDGVY | inactive |
| CYQSLECAIMGYGLYVYSWC | inactive |
| CYSNTLELNDARNCFFNWVR | inactive |
| CYVFIEDLTDGMSCRMLFSH | inactive |
| CYVWSTALCVNISCGSSTAE | 2.7 ± 0.054 |
| CYWPVCYSFGKLQACFYFEI | inactive |
| DAIEKD | inactive |
| DAKKNLLVGVFCHYRSSQER | inactive |
| DALVSYCWLSNLDTAGKMET | inactive |
| DARVVGVLDVRDLAKYFWMA | inactive |
| DATDCVRASMFMSFDASRH | 1.29 ± 0.13 |
| DAWDDNYNASRIGFAYMYSI | inactive |
| DCARFILIT | inactive |
| DCFSKRWLHLFANYSSVSTN | inactive |
| DCIRIYQWASLSL | inactive |
| DDAKFVWYVNINYRYMDSRS | 2.16 ± 0.065 |
| DDCFIARAFLSLGLPELYLG | inactive |
| DDCIKPYSLIYTQRHTPRDI | inactive |
| DDDHKIKLLLSGGL | inactive |
| DDGDVNDGRTWFIL | inactive |
| DDSPFLGRFK | inactive |
